Drawing on article PMC7617732 (2024), this text covers Kd for 1 molecule.

Targets include 3FTx-L8; m6; m7.
Holding throughout (assay): SPR
The target in assay [1] is T1, 3FTx-L15 (recombinant long-chain three-finger α-neurotoxin variant).
T1 chain: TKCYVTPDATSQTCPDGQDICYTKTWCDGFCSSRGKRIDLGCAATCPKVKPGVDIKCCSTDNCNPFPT

The target of assay [2] is T2, 3FTx-L2 (recombinant long-chain three-finger α-neurotoxin variant).
T2 chain: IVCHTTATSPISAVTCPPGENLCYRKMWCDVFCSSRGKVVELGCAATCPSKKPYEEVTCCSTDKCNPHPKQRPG

B1: 95Mat5 (human IgG) (antibody, V domains shown)
VH: QVQLVQSGAEVKKPGSSVKVSCKASGGTFSSYAISWVRQAPGQGLEWMGGYIPIFGTANYAQKFQGRVTITADESTSTAYMELSSLRSEDTAVYYCARIPLRWYESGPYESGVFDYWGQGTLVTVSS
VL: not shown
Take B1: the Kd with 3FTx-L8 was below 0.01 nM; in the assay with m6 it was 0.11 nM; with m7, 0.24 nM; in assay [1], 0.61 nM; in assay [2], 0.72 nM.
